Test results as given in paper PMC9189065.

How the values were obtained:
[1] = molecular target: mouse METAP1(1-79) (mouse) (UniProt Q8BP48); experiment: other fluorescence titration
[2] = molecular target: mouse METAP1(1-59) (mouse) (UniProt Q8BP48); experiment: other fluorescence titration

Kd [1]: 100 nM
stoichiometry N [1]: 1
Kd [2]: 100 nM
stoichiometry N [2]: 1
Substance: mouse ZNG1 N-terminal peptide, synthetic
